Assay results taken from US20260250320A1, “LIPIDATED PEPTIDE INHIBITORS OF INTERLEUKIN-23 RECEPTOR” (Janssen Pharmaceutica NV, priority 2023, published 2026).
*1 amine or outer side, *2 acyl side, *3 side chain or, on linkers, in order; H or OH if unused. Bridges are numbered along the chain shown (N, C = ends). Primed or numbered codes have the meaning given here. Side-chain parts run from the residue outwards. [ ]: non-standard residue; d: D form. The star is where a group is joined. code d = side-chain group of K(d): lysine given as (2R)-2-(4-((5-amino-5-carboxypentyl)amino)-4-oxobutanamido)-3-carboxy-N,N,N-trimethylpropan-1-aminium, C[N+](C)(C)C[C@@H](CC(=O)O)NC(=O)CCC(=O)*; PEG2′ = PEG2 spacer unit (not further defined); Trp(7-Me) = Cc1cccc2c(C[C@H](N)C(=O)O)c[nH]c12; γGlu = O=C(O)[C@H](CCC(=O)[*:2])N[*:1]; 2Nal = N[C@@H](Cc1ccc2ccccc2c1)C(=O)O; AEF = NCCOc1ccc(C[C@H](N)C(=O)O)cc1; 3Pal = N[C@@H](Cc1cccnc1)C(=O)O; succiniccarn = not defined here; NMeK = CN[C@@H](CCCCN)C(=O)O; Pen = CC(C)(S)[C@H](N)C(=O)O; PEG2(3) = not defined here; dAEF′ = not defined here; Thp = NC1(C(=O)O)CCOCC1; Sar = CNCC(=O)O

T1: interleukin-23 receptor (IL-23R) (UniProt Q5VWK5 24-629, limits assumed)
T1 sequence (looked up): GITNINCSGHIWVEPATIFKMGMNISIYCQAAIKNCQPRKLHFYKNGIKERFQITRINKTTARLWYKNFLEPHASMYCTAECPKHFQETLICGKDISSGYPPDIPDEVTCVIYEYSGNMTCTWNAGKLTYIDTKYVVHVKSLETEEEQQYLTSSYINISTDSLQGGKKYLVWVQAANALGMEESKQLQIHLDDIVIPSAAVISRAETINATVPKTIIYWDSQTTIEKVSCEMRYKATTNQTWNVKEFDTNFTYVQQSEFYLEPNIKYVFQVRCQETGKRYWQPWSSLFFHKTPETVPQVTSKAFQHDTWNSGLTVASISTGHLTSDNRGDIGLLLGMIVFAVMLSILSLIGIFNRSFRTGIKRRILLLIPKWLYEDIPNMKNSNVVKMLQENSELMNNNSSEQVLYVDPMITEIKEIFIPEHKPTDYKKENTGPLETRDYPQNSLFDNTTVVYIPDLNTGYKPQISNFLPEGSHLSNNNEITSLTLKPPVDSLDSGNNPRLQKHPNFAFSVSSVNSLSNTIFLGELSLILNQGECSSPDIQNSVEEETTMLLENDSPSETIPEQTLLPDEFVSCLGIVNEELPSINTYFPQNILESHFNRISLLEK

B1: SEQ ID NO: 19 (peptide)
peptide: Ac-[dR][Pen]NT[Trp(7-Me)]K[Pen][AEF][2Nal][Thp]EN[3Pal]X-NH2
modifications: disulfide 2-7 (inferred); not fully specified (residues 6, 14); printed as MeCO-r-Pen(3)-N-T-7MeW-K(PEG2PEG2gEC18OH)-Pen(3)-AEF-2Nal-THP-E-N-3Pya-NMeK(d)-CONH2
B2: SEQ ID NO: 17 (peptide)
peptide: Ac-K[Pen]NT[Trp(7-Me)]K(Ac)[Pen]X[2Nal][Thp]EN[3Pal][Sar]-NH2
modifications: disulfide 2-7 (inferred); not fully specified (residues 1, 8); printed as MeCO-k(PEG2PEG2gEC18OH)-Pen(3)-N-T-7MeW-K(Ac)-Pen(3)-AEF(d)-2Nal-THP-E-N-3Pya-Sar-CONH2
B3: SEQ ID NO: 18 (peptide)
peptide: succiniccarn-[dR][Pen]K([PEG2(3)-PEG2(3)-γGlu-C18OH])T[Trp(7-Me)]K(Ac)[Pen][AEF][2Nal][Thp]EN[3Pal][Sar]-NH2
modifications: disulfide 2-7 (inferred); reading uncertain; also: printed as succiniccarn-r-Pen(3)-K(PEG2PEG2gEC18OH)-T-7MeW-K(Ac)-Pen(3)-AEF-2Nal-THP-E-N-3Pya-Sar-CONH2
B4: SEQ ID NO: 32 (peptide)
peptide: {C18OH-γGlu-PEG2′-PEG2′}-[dR][Pen]NT[Trp(7-Me)]K(Ac)[Pen][dAEF′][2Nal][Thp]EN[3Pal][Sar]-NH2
modifications: disulfide 2-7 (inferred); reading uncertain; also: printed as HOC18gEPEG2PEG2CO-r-Pen(3)-N-T-7MeW-K(Ac)-Pen(3)-AEF(d)-2Nal-THP-E-N-3Pya-Sar-CONH2
B5: SEQ ID NO: 23 (peptide)
peptide: Ac-[dR][Pen]NT[Trp(7-Me)]K(Ac)[Pen][dAEF′][2Nal][Thp]EN[3Pal][Sar]K([PEG2′-PEG2′-γGlu-C18OH])-NH2
modifications: disulfide 2-7 (inferred); reading uncertain; also: printed as MeCO-r-Pen(3)-N-T-7MeW-K(Ac)-Pen(3)-AEF(d)-2Nal-THP-E-N-3Pya-Sar-K(PEG2PEG2gEC18OH)-CONH2
B6: SEQ ID NO: 16 (peptide)
peptide: Ac-[dR][Pen]NT[Trp(7-Me)]K(Ac)[Pen]X[2Nal][Thp]EN[3Pal][NMeK]-NH2
modifications: disulfide 2-7 (inferred); not fully specified (residues 8, 14); printed as MeCO-r-Pen(3)-N-T-7MeW-K(Ac)-Pen(3)-AEF(d)-2Nal-THP-E-N-3Pya-NMeK(PEG2PEG2gEC18OH)-CONH2

target: T1, interleukin-23 receptor (IL-23R); experiment: cell-based or functional assay

PBMC pSTAT3 IC50, < 0.5 nM:
Ac-[dR][Pen]NT[Trp(7-Me)]K(Ac)[Pen][AEF][2Nal][Thp]K(code d)N[3Pal][NMeK]([PEG2′-PEG2′-γGlu-C18OH])-NH2 (disulfide 2-7 (inferred)) [SEQ ID NO: 41]
B1
B2
B3
B4
B5
B6
